Measurements as given in article doi:10.1101/2025.09.11.675134, “Biodistribution-Driven Discovery Identifies a Glycosidase-Cleavable Linker to Reprogram Radiotheranostics” (bioRxiv, 2025).
Like-named read-outs stand apart in the source and are kept apart here.

What was measured:
[1] = Ex vivo biodistribution of 225Ac-labeled variants in AR42J tumor-bearing mice; settings: athymic nu/nu, mouse, total radioactivity; for tissue uptake at 24 h: 24 h post-injection
Protocol: Prior to conducting targeted alpha-particle therapy studies using three ^225Ac-labeled variants (Fig. S17) in AR42J xenograft-bearing mice, we first assessed their in vivo pharmacokinetics through ex vivo biodistribution studies at 24 h post-injection (Fig. 5A; Tables S4). […]
For studies involving three variants (DOTA -TATE, DOTA-MVK(ε)-TATE, and DOTA-β-Gal-TATE), AR42J cells (5 × 10^6 cells per mouse) were subcutaneously inoculated into the right shoulder of the mice. Tumors were allowed to grow for 3 weeks, reaching a volume of 100 –200 mm³ before being used in subsequent experiments. […]
All samples […]
were weighed and counted on a gamma counter (2480 Wizard 3, Perkin Elmer Inc., Waltham, MA, USA). Results are presented as percentage of injected activity per gram (%IA/g) and mean values ± standard deviations. […]
Prior to conducting alpha particle therapy, biodistribution studies with 225Ac-labeled DOTA - TATE variants (117 – 163 kBq, 1 μg) were performed at 24 hours and 4 days post -injection in athymic nu/nu mice bearing AR42J tumors (n = 4 – 5). Mice were euthanized by CO 2 asphyxiation, and 10 tissues, including tumors, were collected. All samples were weighed and counted on a gamma counter after equilibration for 12 hours. Results are presented as %IA/g and mean values ± standard deviations.

AR42J xenografts = assay: Dosimetry estimates of 225Ac-labeled variants from biodistribution data; type: in vivo, athymic nu/nu mice; settings: mouse, in vivo
Text: To evaluate the organ-level radiation absorbed dose resulting from different DOTA-TATE derivatives, we calculated the total effective dose per unit of injected activity (Eff Dose/IA, mSv/MBq) for ^225Ac-labeled variants based on biodistribution data in AR42J xenograft-bearing mice (Tables S5).
Estimated absorbed doses for individual organs for ^225Ac- and ^86Y-labeled DOTA-TATE variants were derived from residence times calculated using %IA/g data from biodistribution studies. The time–activity curves incorporated data from both radionuclides to provide complete coverage of early and late time points. Details of the dosimetry methodology, including time–activity curve construction, integration approach, decay assumptions, and conversion to effective dose, are provided in the Supplementary Information.
Dosimetry: The dosimetry was calculated by measuring the residence time per gram for each organ using the percent injected activity per gram (%IA/g) data collected for the biodistribution study. Because two biodistribution data sample groups were collected, one for the 86Y and the other for the 225Ac variant of the three DOTA-TATE variants (DOTA-TATE, DOTA-MVK(ε)- TATE, and DOTA-β-Gal-TATE) the %IA/g time activity curves (TAC) of the 86Y variant were merged with the 225Ac TACs. This was possible because of the difference in half lives between 86Y and 225Ac being 14.74 and 237.8 hours respectively setting the measurement time points to be 1, 4 and 24 hours for the 86Y ligands and 24, 96 hours for 225Ac. The full time activity curve is thus made up of the 1 and 4 hour time points of the 86Y %IA/g data points, an average of the common 24 hour time point of the 86Y and 225Ac %IA/g data points and the last 96 hour %IA/g time point of the 225Ac samples. The full 4 time points of 1, 4, 24, and 96 hours making up the […]
from which the residence times were calculated.
The integration of the TAC was performed using trapezoidal interpolation between time points.
The first time point assumed constant activity and a decay curve with the half life of the radioisotope was used to estimate activity beyond 96 hours. The average %IA/g was used for each tissue sample for each time point and the resulting standard deviation of the average was then used as the error estimate per time point to propagate through the residence time calculation.
Using the residence time for each TAC, the dose was calculated by looking up the dose per decay for each alpha, beta (positron and electron from nuclear beta decay) and electron emission listed in the nuclear data sheets provided by the Brookhaven National Laboratory National Nuclear Data Center. Since the 225Ac decays via a complicated decay chain, it is assumed that the dose from the daughters remains in the tissue assuming no biological dissemination once the 225Ac decays breaking the bonds of the DOTA-TATE ligand. The following mean dose per decay were used. For 225Ac, 27.58MeV/Bq-s for alpha emissions, 1.33MeV/Bq-s for beta plus electron emissions. For 86Y, 0.219 MeV/Bq-s for beta and electron emissions. Gamma emissions were ignored because of the small size of the tissue samples have small gamma absorption effects which would contribute negligibly to the dose calculation. Furthermore, dosimetry estimate […]
inter organ activity can be calculated(62).
To estimate the effective dose in mSv/MBq, a radiological factor of 5 was used to multiply the dose calculated from the alpha ionizations while a factor of 1 was used for the beta and electron ionizations to convert from mGy/MBq to mSv/MBq (63, 64).

[2] = Histopathology (H&E) after two-cycle therapy; type: in vivo, athymic nu/nu mice; settings: mouse, in vivo
Protocol: To further assess tissue-level toxicity at the conclusion of the two-cycle therapy study, kidneys, livers, spleens, and tumors from representative mice were collected and evaluated histologically using hematoxylin and eosin (H&E) staining. Microscopic pathology was assessed and recorded in the MHL Pathology Database (Zaphod) according to a standardized five-point grading scale (normal, minimal, mild, moderate, marked). Terminology and criteria for pathological findings were consistent with the INHAND (International Harmonization of Nomenclature and Diagnostic Criteria) guidelines developed by the Society of Toxicologic Pathology.
At the conclusion of the two-cycle therapy study, kidneys, livers, spleens, and tumors from representative mice were collected and processed for histological evaluation using hematoxylin and eosin (H&E) staining. Microscopic pathology was assessed and recorded in the MHL Pathology Database (Zaphod) using a standardized five-point ordinal grading system (normal, minimal, mild, moderate, marked). Terminology and diagnostic criteria were consistent with the International Harmonization of Nomenclature and Diagnostic Criteria (INHAND) guidelines established by the Society of Toxicologic Pathology (https://www.toxpath.org/inhand.asp)([57]).

**Q.** Which results are given for `C[C@@H](O)[C@H](NC(=O)[C@@H]1CSSC[C@H](NC(=O)[C@@H](Cc2ccccc2)NC(=O)CN2CCN(CC(=O)O)CCN(CC(=O)O)CCN(CC(=O)O)CC2)C(=O)N[C@@H](Cc2ccc(O)cc2)C(=O)N[C@H](Cc2c[nH]c3ccccc23)C(=O)N[C@@H](CCCCN)C(=O)N[C@@H]([C@@H](C)O)C(=O)N1)C(=O)O` [^225Ac-DOTA-TATE, metal not drawn, reference compound]?
**A.** tissue uptake at 24 h ([1]; iv, 1 ug, 225Ac-labeled, AR42J tumor-bearing mice, ex vivo, mean (± SD), n = 4–5, read-out: Kidney uptake): 4.19 ± 0.28 %ID/g; tissue uptake at 24 h ([1]; iv, 1 ug, 225Ac-labeled, AR42J tumor-bearing mice, ex vivo, mean (± SD), n = 4–5, read-out: Liver uptake): 0.29 ± 0.02 %ID/g; tissue uptake at 24 h ([1]; iv, 1 ug, 225Ac-labeled, AR42J tumor-bearing mice, ex vivo, mean (± SD), n = 4–5, read-out: Tumor uptake): 3.4 ± 0.34 %ID/g; tissue uptake at 24 h ([1]; iv, 1 ug, 225Ac-labeled, AR42J tumor-bearing mice, ex vivo, mean, n = 4–5, read-out: Femur uptake): 0.2 %ID/g; tissue uptake at 24 h ([1]; iv, 1 ug, 225Ac-labeled, AR42J tumor-bearing mice, ex vivo, mean, n = 4–5, read-out: Intestine uptake): 0.09 %ID/g; tissue uptake at 24 h ([1]; iv, 1 ug, 225Ac-labeled, AR42J tumor-bearing mice, ex vivo, mean, n = 4–5, read-out: Spleen uptake): 0.16 %ID/g; tissue uptake at 24 h ([1]; iv, 1 ug, 225Ac-labeled, AR42J tumor-bearing mice, i.v. 1 μg (117–163 kBq), ex vivo gamma counting, mean, n = 4–5, read-out: Blood uptake): 0.03 %ID/g; tissue uptake at 96 h ([1]; iv, 1 ug, 225Ac-labeled, AR42J tumor-bearing mice, 4 days post-injection, ex vivo, mean, n = 4–5, read-out: Blood uptake): 0.04 %ID/g; tissue uptake at 96 h ([1]; iv, 1 ug, 225Ac-labeled, AR42J tumor-bearing mice, 4 days post-injection, ex vivo, mean, n = 4–5, read-out: Femur uptake): 0.41 %ID/g; tissue uptake at 96 h ([1]; iv, 1 ug, 225Ac-labeled, AR42J tumor-bearing mice, 4 days post-injection, ex vivo, mean, n = 4–5, read-out: Intestine uptake): 0.1 %ID/g; tissue uptake at 96 h ([1]; iv, 1 ug, 225Ac-labeled, AR42J tumor-bearing mice, 4 days post-injection, ex vivo, mean, n = 4–5, read-out: Kidney uptake): 1.02 %ID/g; tissue uptake at 96 h ([1]; iv, 1 ug, 225Ac-labeled, AR42J tumor-bearing mice, 4 days post-injection, ex vivo, mean, n = 4–5, read-out: Liver uptake): 0.65 %ID/g; tissue uptake at 96 h ([1]; iv, 1 ug, 225Ac-labeled, AR42J tumor-bearing mice, 4 days post-injection, ex vivo, mean, n = 4–5, read-out: Muscle uptake): 0.16 %ID/g; tissue uptake at 96 h ([1]; iv, 1 ug, 225Ac-labeled, AR42J tumor-bearing mice, 4 days post-injection, ex vivo, mean, n = 4–5, read-out: Spleen uptake): 0.27 %ID/g; tissue uptake at 96 h [1]: 1.14 ± 0.37 %ID/g; tissue uptake at 24 h ([1]; 225Ac-labeled, AR42J tumor-bearing mice, ex vivo, mean, n = 4–5, read-out: Heart uptake): 0.06 %ID/g; tissue uptake at 24 h ([1]; 225Ac-labeled, AR42J tumor-bearing mice, ex vivo, mean, n = 4–5, read-out: Lung uptake): 0.14 %ID/g; tissue uptake at 24 h ([1]; 225Ac-labeled, AR42J tumor-bearing mice, ex vivo, mean, n = 4–5, read-out: Muscle uptake): 0.1 %ID/g; tissue uptake at 96 h ([1]; 225Ac-labeled, AR42J tumor-bearing mice, 4 days post-injection, ex vivo, mean, n = 4–5, read-out: Heart uptake): 0.14 %ID/g; tissue uptake at 96 h ([1]; 225Ac-labeled, AR42J tumor-bearing mice, 4 days post-injection, ex vivo, mean, n = 4–5, read-out: Lung uptake): 0.16 %ID/g; Absorbed dose to kidney (AR42J xenografts): 16.2 Gy; Absorbed dose to tumor (AR42J xenografts): 13.2 Gy; Total effective dose per injected activity, Blood (AR42J xenografts): 4.00E+03 mSv/MBq; Total effective dose per injected activity, Femur (AR42J xenografts): 5.86E+04 mSv/MBq; Total effective dose per injected activity, Heart (AR42J xenografts): 1.42E+04 mSv/MBq; Total effective dose per injected activity, Intestine (AR42J xenografts): 3.04E+04 mSv/MBq; Total effective dose per injected activity, Kidney (AR42J xenografts): 5.27 × 10^5 mSv/MBq; Total effective dose per injected activity, Liver (AR42J xenografts): 6.47E+04 mSv/MBq; Total effective dose per injected activity, Lung (AR42J xenografts): 3.85E+04 mSv/MBq; Total effective dose per injected activity, Muscle (AR42J xenografts): 9.33E+03 mSv/MBq; Total effective dose per injected activity, Spleen (AR42J xenografts): 3.41E+04 mSv/MBq; Total effective dose per injected activity, Tumor (AR42J xenografts): 4.30 × 10^5 mSv/MBq; Glomerulopathy, percentage of mice with grade 0 [2]: 17%; Glomerulopathy, percentage of mice with grade 1+ [2]: 33%; Glomerulopathy, percentage of mice with grade 2+ [2]: 17%; Glomerulopathy, percentage of mice with grade 3+ [2]: 33%; Mice with mild, focal hepatocyte injury [2]: 1 of 6; Tubular damage, percentage of mice with grade 2+ [2]: 50%; Tubular damage, percentage of mice with grade 3+ [2]: 33%; Tubular damage, percentage of mice with grade 4+ [2]: 17%
